The source of these data is paper doi:10.1101/2020.06.29.177279 (bioRxiv, 2020).

Assay in all cases: cryo-EM structure
The target in one experiment is T1, RPC8 (human (endogenous in HeLa), UniProt Q9Y535 1-204).
T1 sequence: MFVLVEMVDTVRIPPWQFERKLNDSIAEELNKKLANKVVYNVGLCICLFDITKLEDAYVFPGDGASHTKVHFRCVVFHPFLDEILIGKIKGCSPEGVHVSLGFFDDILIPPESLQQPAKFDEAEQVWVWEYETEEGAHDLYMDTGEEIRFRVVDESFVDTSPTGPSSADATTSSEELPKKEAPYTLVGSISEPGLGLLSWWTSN

Another experiment has as its target T2, RPC5 (from HeLa) (human (endogenous in HeLa), UniProt Q9NVU0 1-708).
T2 sequence: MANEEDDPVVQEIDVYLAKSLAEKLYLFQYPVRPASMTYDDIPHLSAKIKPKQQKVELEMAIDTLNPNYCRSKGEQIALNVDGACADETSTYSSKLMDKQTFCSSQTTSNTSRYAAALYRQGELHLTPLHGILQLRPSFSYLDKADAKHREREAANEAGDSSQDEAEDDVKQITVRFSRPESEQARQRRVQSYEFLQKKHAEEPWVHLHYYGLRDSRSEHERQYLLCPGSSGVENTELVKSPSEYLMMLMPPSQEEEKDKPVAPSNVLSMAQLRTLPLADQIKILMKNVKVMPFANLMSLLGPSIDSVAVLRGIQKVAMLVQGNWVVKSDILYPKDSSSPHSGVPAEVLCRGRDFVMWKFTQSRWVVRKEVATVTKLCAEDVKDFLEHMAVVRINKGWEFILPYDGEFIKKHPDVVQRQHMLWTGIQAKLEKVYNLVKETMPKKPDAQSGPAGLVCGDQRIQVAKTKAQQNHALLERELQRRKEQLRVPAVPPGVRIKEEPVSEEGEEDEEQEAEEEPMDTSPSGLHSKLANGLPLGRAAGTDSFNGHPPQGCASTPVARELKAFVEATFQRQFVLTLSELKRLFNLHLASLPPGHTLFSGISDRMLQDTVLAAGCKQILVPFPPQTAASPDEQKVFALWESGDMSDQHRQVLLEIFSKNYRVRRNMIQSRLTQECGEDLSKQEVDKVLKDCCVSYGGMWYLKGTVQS

The target in another experiment is RPABC1 (human (endogenous in HeLa), UniProt P19388 1-210).

B1: RPC9 (natural protein)
chain: not shown
For B1, the binding result with RPC8 is “binds”.

B2: RPC4 (from HeLa) (natural protein)
chain: MSEGNAAGEPSTPGGPRPLLTGARGLIGRRPAPPLTPGRLPSIRSRDLTLGGVKKKTFTPNIISRKIKEEPKEEVTVKKEKRERDRDRQREGHGRGRGRPEVIQSHSIFEQGPAEMMKKKGNWDKTVDVSDMGPSHIINIKKEKRETDEETKQILRMLEKDDFLDDPGLRNDTRNMPVQLPLAHSGWLFKEENDEPDVKPWLAGPKEEDMEVDIPAVKVKEEPRDEEEEAKMKAPPKAARKTPGLPKDVSVAELLRELSLTKEEELLFLQLPDTLPGQPPTQDIKPIKTEVQGEDGQVVLIKQEKDREAKLAENACTLADLTEGQVGKLLIRKSGRVQLLLGKVTLDVTMGTACSFLQELVSVGLGDSRTGEMTVLGHVKHKLVCSPDFESLLDHKHR
Consider B2, for which the binding result with RPC5 (from HeLa) was “binds”.

B3: RPC1, largest subunit of human Pol III (from HeLa) (natural protein)
chain: MVKEQFRETDVAKKISHICFGMKSPEEMRQQAHIQVVSKNLYSQDNQHAPLLYGVLDHRMGTSEKDRPCETCGKNLADCLGHYGYIDLELPCFHVGYFRAVIGILQMICKTCCHIMLSQEEKKQFLDYLKRPGLTYLQKRGLKKKISDKCRKKNICHHCGAFNGTVKKCGLLKIIHEKYKTNKKVVDPIVSNFLQSFETAIEHNKEVEPLLGRAQENLNPLVVLNLFKRIPAEDVPLLLMNPEAGKPSDLILTRLLVPPLCIRPSVVSDLKSGTNEDDLTMKLTEIIFLNDVIKKHRISGAKTQMIMEDWDFLQLQCALYINSELSGIPLNMAPKKWTRGFVQRLKGKQGRFRGNLSGKRVDFSGRTVISPDPNLRIDEVAVPVHVAKILTFPEKVNKANINFLRKLVQNGPEVHPGANFIQQRHTQMKRFLKYGNREKMAQELKYGDIVERHLIDGDVVLFNRQPSLHKLSIMAHLARVKPHRTFRFNECVCTPYNADFDGDEMNLHLPQTEEAKAEALVLMGTKANLVTPRNGEPLIAAIQDFLTGAYLLTLKDTFFDRAKACQIIASILVGKDEKIKVRLPPPTILKPVTLWTGKQIFSVILRPSDDNPVRANLRTKGKQYCGKGEDLCANDSYVTIQNSELMSGSMDKGTLGSGSKNNIFYILLRDWGQNEAADAMSRLARLAPVYLSNRGFSIGIGDVTPGQGLLKAKYELLNAGYKKCDEYIEALNTGKLQQQPGCTAEETLEALILKELSVIRDHAGSACLRELDKSNSPLTMALCGSKGSFINISQMIACVGQQAISGSRVPDGFENRSLPHFEKHSKLPAAKGFVANSFYSGLTPTEFFFHTMAGREGLVDTAVKTAETGYMQRRLVKSLEDLCSQYDLTVRSSTGDIIQFIYGGDGLDPAAMEGKDEPLEFKRVLDNIKAVFPCPSEPALSKNELILTTESIMKKSEFLCCQDSFLQEIKKFIKGVSEKIKKTRDKYGINDNGTTEPRVLYQLDRITPTQVEKFLETCRDKYMRAQMEPGSAVGALCAQSIGEPGTQMTLKTFHFAGVASMNITLGVPRIKEIINASKAISTPIITAQLDKDDDADYARLVKGRIEKTLLGEISEYIEEVFLPDDCFILVKLSLERIRLLRLEVNAETVRYSICTSKLRVKPGDVAVHGEAVVCVTPRENSKSSMYYVLQFLKEDLPKVVVQGIPEVSRAVIHIDEQSGKEKYKLLVEGDNLRAVMATHGVKGTRTTSNNTYEVEKTLGIEAARTTIINEIQYTMVNHGMSIDRRHVMLLSDLMTYKGEVLGITRFGLAKMKESVLMLASFEKTADHLFDAAYFGQKDSVCGVSECIIMGIPMNIGTGLFKLLHKADRDPNPPKRPLIFDTNEFHIPLVT
As for B3, the binding result with RPABC1 is “binds”.
